Experimental data published in the supplement of paper PMC9112550, “Optimization of the antimicrobial peptide Bac7 by deep mutational scanning” (BMC Biology, 2022).

System: Escherichia coli TOP10
Experiment: shrunken log2 fold change of peptide-encoding DNA abundance (4.5 h post-induction vs induction); higher = less antimicrobial activity (less host growth inhibition)
Conditions: time post-induction: 4.5 h; library: site-saturation at positions 5, 18, 19, 20
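Also: peptides expressed intracellularly from a pBAD plasmid library in pooled LB shake-flask culture, induced with 0.3% L-arabinose, DNA abundance read by NGS, three biological replicates, DESeq2 with apeglm shrinkage.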

Sequence	shrunken log2 fold change
RRIRCRPPRLPRPRPRPDVWPRP	0.198
RRIRWRPPRLPRPRPRPFGYPRP	-0.0944
RRIRHRPPRLPRPRPRPQIEPRP	-0.24
RRIRARPPRLPRPRPRPLTWPRP	0.272
RRIRMRPPRLPRPRPRPKGPPRP	0.716
RRIRCRPPRLPRPRPRPKFMPRP	-0.527
RRIRERPPRLPRPRPRPTTNPRP	-0.185
RRIRQRPPRLPRPRPRPERFPRP	-0.0441
RRIRNRPPRLPRPRPRPVYPPRP	-0.341
RRIRPRPPRLPRPRPRPHHHPRP	-0.532
RRIRWRPPRLPRPRPRPLEMPRP	0.373
RRIRYRPPRLPRPRPRPPGFPRP	0.184
RRIRNRPPRLPRPRPRPCNTPRP	-0.442
RRIRKRPPRLPRPRPRPYLMPRP	-0.0192
RRIRARPPRLPRPRPRPFHGPRP	0.0917
RRIRGRPPRLPRPRPRPCEMPRP	0.852
RRIRDRPPRLPRPRPRPIGMPRP	0.0484
RRIRYRPPRLPRPRPRPIAEPRP	2.73
RRIRYRPPRLPRPRPRPEINPRP	0.0373
RRIRSRPPRLPRPRPRPMQTPRP	0.291
RRIRGRPPRLPRPRPRPKKAPRP	-0.0191
RRIRLRPPRLPRPRPRPLTKPRP	-0.0425
RRIRCRPPRLPRPRPRPFIQPRP	-1.04
RRIRPRPPRLPRPRPRPMHHPRP	-0.194
RRIRNRPPRLPRPRPRPDWDPRP	-0.108

Sequence	shrunken log2 fold change
RRIRQRPPRLPRPRPRPLWDPRP	-0.0887
RRIRHRPPRLPRPRPRPTRLPRP	0.189
RRIRCRPPRLPRPRPRPHAHPRP	-0.182
RRIRLRPPRLPRPRPRPLPCPRP	0.142
RRIRFRPPRLPRPRPRPPFYPRP	-0.462
RRIRGRPPRLPRPRPRPYEPPRP	0.0834
RRIRYRPPRLPRPRPRPHEGPRP	-0.199
RRIRPRPPRLPRPRPRPWWSPRP	0.361
RRIRMRPPRLPRPRPRPHLMPRP	0.151
RRIRNRPPRLPRPRPRPPAHPRP	0.626
RRIRMRPPRLPRPRPRPIVHPRP	-0.289
RRIRDRPPRLPRPRPRPILMPRP	0.303
RRIRDRPPRLPRPRPRPHTGPRP	-0.0359
RRIRGRPPRLPRPRPRPFQCPRP	-0.0282
RRIRNRPPRLPRPRPRPAHAPRP	0.116
RRIRRRPPRLPRPRPRPVYFPRP	-0.267
RRIRGRPPRLPRPRPRPTRVPRP	0.748
RRIRSRPPRLPRPRPRPNKMPRP	-0.05
RRIRNRPPRLPRPRPRPCHPPRP	-0.0698
RRIRMRPPRLPRPRPRPRDKPRP	0.0704
RRIRNRPPRLPRPRPRPADPPRP	-0.0809
RRIRDRPPRLPRPRPRPLKFPRP	0.0649
RRIRARPPRLPRPRPRPKSIPRP	-0.078
RRIRGRPPRLPRPRPRPNPFPRP	0.189
RRIRLRPPRLPRPRPRPQRAPRP	0.309

Sequence	shrunken log2 fold change
RRIRVRPPRLPRPRPRPTCAPRP	0.579
RRIRPRPPRLPRPRPRPHRSPRP	0.0256
RRIRARPPRLPRPRPRPVMEPRP	1.04
RRIRYRPPRLPRPRPRPEVYPRP	-0.0597
RRIRQRPPRLPRPRPRPIMTPRP	-0.107
RRIRKRPPRLPRPRPRPDGVPRP	0.154
RRIRTRPPRLPRPRPRPKCAPRP	0.909
RRIRGRPPRLPRPRPRPWQDPRP	0.00455
RRIRARPPRLPRPRPRPPSYPRP	0.0336
RRIRCRPPRLPRPRPRPAFQPRP	0.0486
RRIRVRPPRLPRPRPRPDFWPRP	0.239
RRIRFRPPRLPRPRPRPACRPRP	0.192
RRIRLRPPRLPRPRPRPHTLPRP	-0.224
RRIRDRPPRLPRPRPRPFRMPRP	-0.125
RRIRNRPPRLPRPRPRPNMFPRP	-0.00614
RRIRARPPRLPRPRPRPYRHPRP	-0.157
RRIRMRPPRLPRPRPRPQMTPRP	1.2
RRIRSRPPRLPRPRPRPLYLPRP	-0.212
RRIRPRPPRLPRPRPRPCSAPRP	0.199
RRIRHRPPRLPRPRPRPDAIPRP	-0.025
RRIRARPPRLPRPRPRPPYQPRP	0.171
RRIRERPPRLPRPRPRPYYRPRP	-0.165
RRIRMRPPRLPRPRPRPTAQPRP	0.819
RRIRVRPPRLPRPRPRPTIRPRP	0.0315
RRIRWRPPRLPRPRPRPMQRPRP	0.667

Sequence	shrunken log2 fold change
RRIRKRPPRLPRPRPRPHCFPRP	0.0684
RRIRIRPPRLPRPRPRPDEYPRP	0.0287
RRIRWRPPRLPRPRPRPSQYPRP	-0.41
RRIRARPPRLPRPRPRPHNYPRP	-0.303
RRIRVRPPRLPRPRPRPGSRPRP	0.177
RRIRSRPPRLPRPRPRPACDPRP	0.119
RRIRKRPPRLPRPRPRPFKKPRP	0.00557
RRIRQRPPRLPRPRPRPMHNPRP	-0.28
RRIRLRPPRLPRPRPRPKKEPRP	-0.0307
RRIRFRPPRLPRPRPRPCFSPRP	-0.759
RRIRLRPPRLPRPRPRPHVEPRP	0.522
RRIRQRPPRLPRPRPRPWIKPRP	-0.0062
RRIRRRPPRLPRPRPRPADMPRP	-0.0139
RRIRSRPPRLPRPRPRPHMTPRP	-0.384
RRIRQRPPRLPRPRPRPYIMPRP	-1.64
RRIRGRPPRLPRPRPRPFIDPRP	0.585
RRIRSRPPRLPRPRPRPGHLPRP	-0.236
RRIRWRPPRLPRPRPRPCEAPRP	0.471
RRIRDRPPRLPRPRPRPTASPRP	0.381
RRIRVRPPRLPRPRPRPVPEPRP	0.564
RRIRWRPPRLPRPRPRPFEQPRP	0.0143
RRIRLRPPRLPRPRPRPSIVPRP	-0.294
RRIRCRPPRLPRPRPRPTGVPRP	0.619
RRIRDRPPRLPRPRPRPWAAPRP	0.00948
RRIRDRPPRLPRPRPRPSAGPRP	0.67

Sequence	shrunken log2 fold change
RRIRWRPPRLPRPRPRPPKCPRP	0.156
RRIRYRPPRLPRPRPRPWAHPRP	-0.324
RRIRGRPPRLPRPRPRPICAPRP	1.2
RRIRWRPPRLPRPRPRPRRMPRP	0.215
RRIRERPPRLPRPRPRPLRDPRP	-0.0299
RRIRDRPPRLPRPRPRPWALPRP	-0.000578
RRIRHRPPRLPRPRPRPGRWPRP	0.413
RRIRSRPPRLPRPRPRPDHRPRP	0.0482
RRIRTRPPRLPRPRPRPMQLPRP	-0.191
RRIRIRPPRLPRPRPRPSVYPRP	-0.277
RRIRCRPPRLPRPRPRPGEDPRP	-0.0369
RRIRSRPPRLPRPRPRPNHMPRP	-0.236
RRIRARPPRLPRPRPRPWSWPRP	0.109
RRIRRRPPRLPRPRPRPMHKPRP	0.299
RRIRARPPRLPRPRPRPYMTPRP	-0.256
RRIRLRPPRLPRPRPRPWWKPRP	-0.198
RRIRMRPPRLPRPRPRPNACPRP	0.0451
RRIRHRPPRLPRPRPRPSWMPRP	-0.419
RRIRCRPPRLPRPRPRPVGEPRP	0.0624
RRIRPRPPRLPRPRPRPNQQPRP	0.0352
RRIRLRPPRLPRPRPRPNACPRP	0.127
RRIRDRPPRLPRPRPRPFQYPRP	0.0242
RRIRPRPPRLPRPRPRPHYQPRP	-0.417
RRIRVRPPRLPRPRPRPDTEPRP	0.0532
RRIRHRPPRLPRPRPRPCYHPRP	-0.00149
